Experimental findings from patent US20230355708A1 (DREXEL UNIVERSITY, published 2023) are described below.

The target in this test is SARS-CoV-2 spike S2 subunit (SARS-CoV-2, UniProt P0DTC2 686-1213). Nature of the test: SPR, S2 anchored on low dextran chip, CVN injected at increasing concentrations.

B1: Cyanovirin-N (CV-N) (other)
chain: LGKFSQTCYNSAIQGSVLTSTCERTNGGYNTSSIDLNSVIENVDGSLKWQPSNFIETCRNTQLAGSSELAAECKTRAQQFVSTKINLDDHIANIDGTLKYE
In the case of B1, the binding result is “binds”.
